What was measured:
Experiment in all cases: IP/MS, LZTR1 wild type-FLAG, U87
SREBF2 = target: T1, SREBF2 (human, UniProt Q12772 1-1141, limits assumed)
T1 sequence (looked up): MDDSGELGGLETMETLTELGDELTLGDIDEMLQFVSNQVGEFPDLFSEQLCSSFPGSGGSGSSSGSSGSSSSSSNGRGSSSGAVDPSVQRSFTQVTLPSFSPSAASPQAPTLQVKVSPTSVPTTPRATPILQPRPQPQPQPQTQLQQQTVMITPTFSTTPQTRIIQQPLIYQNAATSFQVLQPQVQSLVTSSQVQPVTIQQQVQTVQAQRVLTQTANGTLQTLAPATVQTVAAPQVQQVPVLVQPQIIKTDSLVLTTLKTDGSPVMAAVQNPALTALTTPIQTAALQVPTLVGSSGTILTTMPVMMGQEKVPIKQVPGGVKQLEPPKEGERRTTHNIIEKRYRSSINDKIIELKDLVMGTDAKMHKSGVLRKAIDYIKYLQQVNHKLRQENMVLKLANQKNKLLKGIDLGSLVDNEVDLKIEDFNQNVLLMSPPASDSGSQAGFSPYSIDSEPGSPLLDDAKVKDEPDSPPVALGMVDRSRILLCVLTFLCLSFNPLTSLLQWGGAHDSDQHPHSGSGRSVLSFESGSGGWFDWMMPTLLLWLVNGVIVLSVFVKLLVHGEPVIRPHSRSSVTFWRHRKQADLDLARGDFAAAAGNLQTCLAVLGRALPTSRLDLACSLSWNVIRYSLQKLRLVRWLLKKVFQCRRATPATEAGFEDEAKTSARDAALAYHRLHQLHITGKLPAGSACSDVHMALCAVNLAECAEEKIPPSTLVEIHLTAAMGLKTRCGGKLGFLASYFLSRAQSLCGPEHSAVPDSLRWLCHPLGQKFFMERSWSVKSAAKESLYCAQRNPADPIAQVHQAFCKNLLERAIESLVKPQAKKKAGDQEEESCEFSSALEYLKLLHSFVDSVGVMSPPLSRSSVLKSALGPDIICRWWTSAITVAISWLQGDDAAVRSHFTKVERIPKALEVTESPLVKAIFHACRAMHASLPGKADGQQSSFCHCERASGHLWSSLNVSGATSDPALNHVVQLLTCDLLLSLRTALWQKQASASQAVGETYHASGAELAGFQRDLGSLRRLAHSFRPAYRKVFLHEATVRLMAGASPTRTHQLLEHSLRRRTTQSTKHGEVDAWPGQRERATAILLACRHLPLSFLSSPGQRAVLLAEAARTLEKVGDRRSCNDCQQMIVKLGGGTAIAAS
Summary of the method: (§1)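 Gel slices were reduced with 5 mM DTT, alkylated with 11 mM IAA and digested overnight at 37° C. with trypsin. Peptides were analysed on an Orbitrap Fusion Tribrid by LC-MS/MS.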

PTPN23 = PTPN23 (human, UniProt Q9H3S7 1-1636)
Summary of the method: as §1

AP4E1 = target: T2, AP4E1 (human, UniProt Q9UPM8 1-1137, limits assumed)
T2 sequence (looked up): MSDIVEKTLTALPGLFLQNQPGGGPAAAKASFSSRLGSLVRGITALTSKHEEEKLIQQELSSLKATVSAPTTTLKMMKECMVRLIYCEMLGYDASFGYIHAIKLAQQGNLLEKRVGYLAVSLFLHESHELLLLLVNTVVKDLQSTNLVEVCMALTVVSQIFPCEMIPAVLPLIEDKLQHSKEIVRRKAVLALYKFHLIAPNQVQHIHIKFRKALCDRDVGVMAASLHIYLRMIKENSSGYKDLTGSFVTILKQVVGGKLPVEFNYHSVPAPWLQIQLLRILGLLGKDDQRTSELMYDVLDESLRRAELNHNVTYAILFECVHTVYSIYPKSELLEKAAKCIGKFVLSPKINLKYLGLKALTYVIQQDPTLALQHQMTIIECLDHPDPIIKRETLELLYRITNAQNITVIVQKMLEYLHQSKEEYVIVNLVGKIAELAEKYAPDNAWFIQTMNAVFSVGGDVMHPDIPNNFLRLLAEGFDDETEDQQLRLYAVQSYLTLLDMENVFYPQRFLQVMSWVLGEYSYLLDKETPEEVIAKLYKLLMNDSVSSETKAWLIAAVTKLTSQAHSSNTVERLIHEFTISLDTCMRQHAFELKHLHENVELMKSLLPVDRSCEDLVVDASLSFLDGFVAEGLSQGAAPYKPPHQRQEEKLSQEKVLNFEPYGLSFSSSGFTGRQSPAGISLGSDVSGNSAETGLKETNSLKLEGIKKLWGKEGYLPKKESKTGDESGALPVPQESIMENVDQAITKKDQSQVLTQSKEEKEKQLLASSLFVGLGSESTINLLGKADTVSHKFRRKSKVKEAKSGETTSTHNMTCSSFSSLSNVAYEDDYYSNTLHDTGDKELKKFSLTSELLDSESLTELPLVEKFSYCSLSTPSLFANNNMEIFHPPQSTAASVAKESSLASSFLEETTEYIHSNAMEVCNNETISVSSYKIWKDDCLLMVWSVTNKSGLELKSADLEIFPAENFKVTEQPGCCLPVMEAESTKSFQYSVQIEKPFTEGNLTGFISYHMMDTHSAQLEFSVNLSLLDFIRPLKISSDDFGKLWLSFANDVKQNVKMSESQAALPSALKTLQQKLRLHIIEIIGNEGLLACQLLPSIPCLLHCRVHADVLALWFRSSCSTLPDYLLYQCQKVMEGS
Summary of the method: as §1

Measured: binding result

Sequence of PTPN23 (Q9H3S7 whole entry): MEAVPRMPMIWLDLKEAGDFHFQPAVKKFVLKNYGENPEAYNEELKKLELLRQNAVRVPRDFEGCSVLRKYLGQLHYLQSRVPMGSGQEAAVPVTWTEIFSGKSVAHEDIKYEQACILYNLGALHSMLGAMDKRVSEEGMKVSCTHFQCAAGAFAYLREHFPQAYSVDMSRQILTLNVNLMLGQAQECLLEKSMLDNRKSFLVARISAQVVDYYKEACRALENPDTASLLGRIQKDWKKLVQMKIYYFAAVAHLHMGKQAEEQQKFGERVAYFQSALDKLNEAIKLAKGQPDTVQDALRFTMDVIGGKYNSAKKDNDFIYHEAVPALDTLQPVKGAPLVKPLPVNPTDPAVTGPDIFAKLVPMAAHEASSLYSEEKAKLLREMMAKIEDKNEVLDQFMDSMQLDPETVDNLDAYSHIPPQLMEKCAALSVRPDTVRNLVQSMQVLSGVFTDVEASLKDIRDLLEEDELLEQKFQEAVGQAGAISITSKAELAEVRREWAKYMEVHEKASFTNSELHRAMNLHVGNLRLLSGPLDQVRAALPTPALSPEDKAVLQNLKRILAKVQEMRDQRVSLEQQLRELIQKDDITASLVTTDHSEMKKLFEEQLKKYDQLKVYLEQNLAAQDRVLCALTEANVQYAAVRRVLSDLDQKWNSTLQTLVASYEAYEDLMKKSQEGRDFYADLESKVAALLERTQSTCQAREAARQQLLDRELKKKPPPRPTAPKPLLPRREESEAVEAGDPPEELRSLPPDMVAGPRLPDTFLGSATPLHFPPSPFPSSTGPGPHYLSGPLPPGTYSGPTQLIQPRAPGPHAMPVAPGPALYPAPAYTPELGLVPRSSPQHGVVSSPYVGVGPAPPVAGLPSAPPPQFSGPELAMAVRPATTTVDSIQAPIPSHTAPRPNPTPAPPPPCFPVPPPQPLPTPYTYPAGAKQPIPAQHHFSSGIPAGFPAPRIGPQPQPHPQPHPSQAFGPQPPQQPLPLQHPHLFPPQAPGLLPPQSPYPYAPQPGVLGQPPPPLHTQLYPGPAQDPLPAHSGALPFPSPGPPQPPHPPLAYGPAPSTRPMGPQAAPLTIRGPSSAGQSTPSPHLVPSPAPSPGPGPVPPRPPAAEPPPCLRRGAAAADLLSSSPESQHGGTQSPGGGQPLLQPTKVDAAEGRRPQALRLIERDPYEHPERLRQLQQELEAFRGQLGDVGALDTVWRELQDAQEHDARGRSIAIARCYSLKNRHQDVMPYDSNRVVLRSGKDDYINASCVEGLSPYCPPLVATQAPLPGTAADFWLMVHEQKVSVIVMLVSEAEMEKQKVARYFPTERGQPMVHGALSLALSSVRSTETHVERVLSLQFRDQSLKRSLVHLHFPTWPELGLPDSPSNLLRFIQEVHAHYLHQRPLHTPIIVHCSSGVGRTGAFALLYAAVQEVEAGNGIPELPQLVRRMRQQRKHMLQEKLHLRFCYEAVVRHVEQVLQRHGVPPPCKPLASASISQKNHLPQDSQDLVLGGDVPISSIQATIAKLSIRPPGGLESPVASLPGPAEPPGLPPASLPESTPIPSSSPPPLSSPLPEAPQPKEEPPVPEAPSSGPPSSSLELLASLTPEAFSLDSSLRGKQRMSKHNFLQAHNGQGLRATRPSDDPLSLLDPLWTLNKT

B1: LZTR1-FLAG (other, human, UniProt Q8N653 1-840, looked up)
chain: MAGPGSTGGQIGAAALAGGARSKVAPSVDFDHSCSDSVEYLTLNFGPFETVHRWRRLPPCDEFVGARRSKHTVVAYKDAIYVFGGDNGKTMLNDLLRFDVKDCSWCRAFTTGTPPAPRYHHSAVVYGSSMFVFGGYTGDIYSNSNLKNKNDLFEYKFATGQWTEWKIEGRLPVARSAHGATVYSDKLWIFAGYDGNARLNDMWTIGLQDRELTCWEEVAQSGEIPPSCCNFPVAVCRDKMFVFSGQSGAKITNNLFQFEFKDKTWTRIPTEHLLRGSPPPPQRRYGHTMVAFDRHLYVFGGAADNTLPNELHCYDVDFQTWEVVQPSSDSEVGGAEVPERACASEEVPTLTYEERVGFKKSRDVFGLDFGTTSAKQPTQPASELPSGRLFHAAAVISDAMYIFGGTVDNNIRSGEMYRFQFSCYPKCTLHEDYGRLWESRQFCDVEFVLGEKEECVQGHVAIVTARSRWLRRKITQARERLAQKLEQEAAPVPREAPGVAAGGARPPLLHVAIREAEARPFEVLMQFLYTDKIKYPRKGHVEDVLLIMDVYKLALSFQLCRLEQLCRQYIEASVDLQNVLVVCESAARLQLSQLKEHCLNFVVKESHFNQVIMMKEFERLSSPLIVEIVRRKQQPPPRTPLDQPVDIGTSLIQDMKAYLEGAGAEFCDITLLLDGHPRPAHKAILAARSSYFEAMFRSFMPEDGQVNISIGEMVPSRQAFESMLRYIYYGEVNMPPEDSLYLFAAPYYYGFYNNRLQAYCKQNLEMNVTVQNVLQILEAADKTQALDMKRHCLHIIVHQFTKVSKLPTLRSLSQQLLLDIIDSLASHISDKQCAELGADI
notes: Expressed in HEK 293T, HeLa or U87 cells; used as cell lysate; also called LZTR1 wild type-FLAG; LZTR1 WT; not shown: FLAG tag at the C-terminus
binds: all assays above

Reference: patent US20250262210A1 (TRUSTEES OF COLUMBIA UNIVERSITY IN THE CITY OF NEW YORK, published 2025)
